This passage reports absorbance results from US20080104734A1.

For this assay, the target named is SSPG1d peptide (…) (Sclerotinia sclerotiorum). The experiment in a line: phage ELISA during panning of the phage display scFv library. (In an ELISA, binding on a coated surface is turned into a signal by an enzyme label.)

B1: scFv-SSPG1d-peptide (scFv)
scFv: MDIVLTQSPAIMSASPGEKVTMTCSASSSVSYMHWYQQKSSTSPKLWIYDTSKLASGVPGRFSGSGSGNSYSLTISSMEAEDVATYYCFQGSGYPLTFGAGTKLEIKRGAGGSGGGGSGGGGSGGGGSQVQLQQSGAELVRPGSSVKISCKASGYAFSNYWMNWVKQRPGQGLEWIGQIYPGYGDAKYNGKFKGKATLTADISSSTAYMQLSSLTSEDSAVYFCARSSYEANWGQGTLVTVSA
For the molecule B1, the absorbance at 450 nm above background (absorbance (450 nm)) was determined as 0.871.
